Experimental data from patent publication US20150038673A1.
Bridge positions count the residues as written; N and C are the ends. Square brackets hold non-standard residues; d marks the D form.

B1: ECII-25AA Cys/Ser mutant (Gln-)cyclopeptide (formula VII) (peptide)
peptide: cyclo(ARAESDEARRCYNDPKCSDFVTNRQ)
modifications: disulfide 11-17
SMILES: CC(C)[C@@H]1NC(=O)[C@H](Cc2ccccc2)NC(=O)[C@H](CC(=O)O)NC(=O)[C@H](CO)NC(=O)[C@@H]2CSSC[C@H](NC(=O)[C@H](CCCNC(=N)N)NC(=O)[C@H](CCCNC(=N)N)NC(=O)[C@H](C)NC(=O)[C@H](CCC(=O)O)NC(=O)[C@H](CC(=O)O)NC(=O)[C@H](CO)NC(=O)[C@H](CCC(=O)O)NC(=O)[C@H](C)NC(=O)[C@H](CCCNC(=N)N)NC(=O)[C@H](C)NC(=O)[C@H](CCC(N)=O)NC(=O)[C@H](CCCNC(=N)N)NC(=O)[C@H](CC(N)=O)NC(=O)[C@H]([C@@H](C)O)NC1=O)C(=O)N[C@@H](Cc1ccc(O)cc1)C(=O)N[C@@H](CC(N)=O)C(=O)N[C@@H](CC(=O)O)C(=O)N1CCC[C@H]1C(=O)N[C@@H](CCCCN)C(=O)N2
B2: ECII-18AA Cys/Ser mutant (Gln-)cyclopeptide (formula VI) (peptide)
peptide: cyclo(ADEARRCYNDPKCSDFVQ)
modifications: disulfide 7-13
SMILES: CC(C)[C@@H]1NC(=O)[C@H](Cc2ccccc2)NC(=O)[C@H](CC(=O)O)NC(=O)[C@H](CO)NC(=O)[C@@H]2CSSC[C@H](NC(=O)[C@H](CCCNC(=N)N)NC(=O)[C@H](CCCNC(=N)N)NC(=O)[C@H](C)NC(=O)[C@H](CCC(=O)O)NC(=O)[C@H](CC(=O)O)NC(=O)[C@H](C)NC(=O)[C@H](CCC(N)=O)NC1=O)C(=O)N[C@@H](Cc1ccc(O)cc1)C(=O)N[C@@H](CC(N)=O)C(=O)N[C@@H](CC(=O)O)C(=O)N1CCC[C@H]1C(=O)N[C@@H](CCCCN)C(=O)N2
B3: β1-ECII-18AA Cys/Ser cyclopeptide mutant with D-Glu ring closure (formula VIII) (peptide)
peptide: cyclo(ADEARRCYNDPKCSDFV[dE])
modifications: disulfide 7-13
SMILES: CC(C)[C@@H]1NC(=O)[C@H](Cc2ccccc2)NC(=O)[C@H](CC(=O)O)NC(=O)[C@H](CO)NC(=O)[C@@H]2CSSC[C@H](NC(=O)[C@H](CCCNC(=N)N)NC(=O)[C@H](CCCNC(=N)N)NC(=O)[C@H](C)NC(=O)[C@H](CCC(=O)O)NC(=O)[C@H](CC(=O)O)NC(=O)[C@H](C)NC(=O)[C@@H](CCC(=O)O)NC1=O)C(=O)N[C@@H](Cc1ccc(O)cc1)C(=O)N[C@@H](CC(N)=O)C(=O)N[C@@H](CC(=O)O)C(=O)N1CCC[C@H]1C(=O)N[C@@H](CCCCN)C(=O)N2
B4: ECII-22AA Cys/Ser mutant (Gly-)cyclopeptide (formula IX′) (peptide)
peptide: cyclo(RAESDEARRCYNDPKCSDFVTG)
modifications: disulfide 10-16
SMILES: CC(C)[C@@H]1NC(=O)[C@H](Cc2ccccc2)NC(=O)[C@H](CC(=O)O)NC(=O)[C@H](CO)NC(=O)[C@@H]2CSSC[C@H](NC(=O)[C@H](CCCNC(=N)N)NC(=O)[C@H](CCCNC(=N)N)NC(=O)[C@H](C)NC(=O)[C@H](CCC(=O)O)NC(=O)[C@H](CC(=O)O)NC(=O)[C@H](CO)NC(=O)[C@H](CCC(=O)O)NC(=O)[C@H](C)NC(=O)[C@H](CCCNC(=N)N)NC(=O)CNC(=O)[C@H]([C@@H](C)O)NC1=O)C(=O)N[C@@H](Cc1ccc(O)cc1)C(=O)N[C@@H](CC(N)=O)C(=O)N[C@@H](CC(=O)O)C(=O)N1CCC[C@H]1C(=O)N[C@@H](CCCCN)C(=O)N2

molecular target: anti-β1-ECII antibodies of GST/β1-ECII-immunized antibody-positive rats (sera or isolated IgG fractions) (rat); test: dose-dependent ELISA competition, n=6 rat sera

| decrease in free anti-beta1-ECII antibodies (%) at 8-fold molar excess of peptide | decrease in free anti-beta1-ECII antibodies (%) at 20-fold molar excess of peptide | decrease in free anti-beta1-ECII antibodies (%) at 80-fold molar excess of peptide | decrease in receptor antibody-titers (%) at 8-fold molar excess of peptide | decrease in receptor antibody-titers (%) at 20-fold molar excess of peptide | decrease in receptor antibody-titers (%) at 80-fold molar excess of peptide | Binder |
| --- | --- | --- | --- | --- | --- | --- |
| 30% | 49% | 83% | – | – | – | B1 |
| – | – | – | 24% | 35% | 50% | ADEARRCYNDPKCSDFVQ [linear ECII-18AA Cys/Ser mutated (Gln18-)peptide] |
| 53% | 66% | 85% | – | – | – | B2 |
| 46% | 56% | 71% | – | – | – | cyclo(ADEARRCYNDPKCCDFVQ) (also: three Cys (7, 13, 14), disulfide pairing not defined) [3 Cys-containing β1-ECII-18AA Cys/Cys cyclopeptide] |
| – | – | – | 24% | 35% | 50% | ARAESDEARRCYNDPKCCDFVTNRQ [linear non-mutated 3 Cys-containing ECII-25AA Cys/Cys (Gln25) peptide] |

molecular target: anti-β1-ECII antibodies in rat sera preferentially reacting with the Cys/Ser mutated cyclopeptides (type1 reaction, n=64) (rat); test: ELISA competition, type1 sera (n=64), linear 25AA Cys/Cys peptide as antigen

| blocking capacity (% of blocked versus non-blocked ELISA-reactivity) | Binder |
| --- | --- |
| 1% | cyclo(ADEARRCYNDPKSCDFV[dE]) (disulfide 7-14 (inferred)) [β1-ECII-18AA Ser/Cys cyclopeptide mutant with D-Glu ring closure (formula XII)] |
| 69% | B1 |
| 6% | cyclo(ARAESDEARRCYNDPKSCDFVTNRQ) (disulfide 11-18 (inferred)) [β1-ECII-25AA Ser/Cys mutant (Gln-)cyclopeptide (formula XI)] |
| 65% | cyclo(ARAESDEARRCYNDPKCCDFVTNRQ) (also: three Cys (11, 17, 18), disulfide pairing not defined) [3 Cys-containing β1-ECII-25AA Cys/Cys cyclopeptide] |
| 1% | cyclo(ADEARRCYNDPKSCDFVQ) (disulfide 7-14 (inferred)) [β1-ECII-18AA Ser/Cys mutant (Gln-)cyclopeptide (formula X)] |
| 69% | B3 |
| 68% | B2 |
| 59% | cyclo(ADEARRCYNDPKCCDFVQ) (also: three Cys (7, 13, 14), disulfide pairing not defined) [3 Cys-containing β1-ECII-18AA Cys/Cys cyclopeptide] |

molecular target: anti-β1-ECII antibodies in rat sera reacting with both the Cys/Ser and the Ser/Cys mutated cyclopeptides (type2 reaction, n=5) (rat); test: ELISA competition, type2 sera (n=5), linear 25AA Cys/Cys peptide as antigen

| blocking capacity (% of blocked versus non-blocked ELISA-reactivity) | Binder |
| --- | --- |
| 33% | cyclo(ADEARRCYNDPKSCDFV[dE]) (disulfide 7-14 (inferred)) [β1-ECII-18AA Ser/Cys cyclopeptide mutant with D-Glu ring closure (formula XII)] |
| 48% | B1 |
| 37% | cyclo(ARAESDEARRCYNDPKSCDFVTNRQ) (disulfide 11-18 (inferred)) [β1-ECII-25AA Ser/Cys mutant (Gln-)cyclopeptide (formula XI)] |
| 72% | cyclo(ARAESDEARRCYNDPKCCDFVTNRQ) (also: three Cys (11, 17, 18), disulfide pairing not defined) [3 Cys-containing β1-ECII-25AA Cys/Cys cyclopeptide] |
| 47% | cyclo(ADEARRCYNDPKSCDFVQ) (disulfide 7-14 (inferred)) [β1-ECII-18AA Ser/Cys mutant (Gln-)cyclopeptide (formula X)] |
| 47% | B3 |
| 50% | B2 |
| 67% | cyclo(ADEARRCYNDPKCCDFVQ) (also: three Cys (7, 13, 14), disulfide pairing not defined) [3 Cys-containing β1-ECII-18AA Cys/Cys cyclopeptide] |

molecular target: anti-β1-ECII antibodies of GST/β1-ECII-immunized antibody-positive rats (sera or isolated IgG fractions) (rat); test: ELISA competition, IgG of n=78 rats preincubated with peptide, linear 25AA Cys/Cys peptide as antigen

| blocking capacity (% of blocked versus non-blocked ELISA-reactivity) | Binder |
| --- | --- |
| 1% | cyclo(ADEARRCYNDPKSCDFV[dE]) (disulfide 7-14 (inferred)) [β1-ECII-18AA Ser/Cys cyclopeptide mutant with D-Glu ring closure (formula XII)] |
| 6% | cyclo(ARAESDEARRCYNDPKSCDFVTNRQ) (disulfide 11-18 (inferred)) [β1-ECII-25AA Ser/Cys mutant (Gln-)cyclopeptide (formula XI)] |
| 67% | cyclo(ARAESDEARRCYNDPKCCDFVTNRQ) (also: three Cys (11, 17, 18), disulfide pairing not defined) [3 Cys-containing β1-ECII-25AA Cys/Cys cyclopeptide] |
| 69% | B3 |
| 60% | cyclo(ADEARRCYNDPKCCDFVQ) (also: three Cys (7, 13, 14), disulfide pairing not defined) [3 Cys-containing β1-ECII-18AA Cys/Cys cyclopeptide] |
| 55% | ARAESDEARRCYNDPKCCDFVTNRQ [linear non-mutated 3 Cys-containing ECII-25AA Cys/Cys (Gln25) peptide] |

molecular target: anti-β1-ECII antibodies of GST/β1-ECII-immunized antibody-positive rats (sera or isolated IgG fractions) (rat); test: ELISA after over-night incubation of n=6 rat sera with cyclopeptide (FIG. 27B, mean)

| blocking-efficiency (% of the ELISA signals of unblocked sera) | Binder |
| --- | --- |
| 73.4% | cyclo(ARAESDEARRCYNDPKCCDFVTNRQ) (also: three Cys (11, 17, 18), disulfide pairing not defined) [3 Cys-containing β1-ECII-25AA Cys/Cys cyclopeptide] |
| 82% | cyclo(RAESDEARRCYNDPKCCDFVTG) (also: disulphide pairing among Cys10, Cys16, Cys17 not defined) [cyc22AA Cys/Cys, 3 cysteine-containing cyclic β1-ECII 22AA peptide with a Gly closure site] |
| 60% | B2 |
| 74.9% | B4 |
| 66.1% | cyclo(ADEARRCYNDPKCCDFVQ) (also: three Cys (7, 13, 14), disulfide pairing not defined) [3 Cys-containing β1-ECII-18AA Cys/Cys cyclopeptide] |
